Experimental data: the nanobody polyreactivity screen of Harvey et al. (2022)

Experiment: yeast display, Sf9 membrane polyspecificity reagent, FACS + sequencing; frameworks hold sequencing errors
Procedure, shortened: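 In a synthetic yeast display library (Saccharomyces cerevisiae BJ5465), nanobody expression was induced with galactose for 36–48 hours. FACS gates were set low and high (top ~1%) using anti-HA fluorescence for expression and streptavidin fluorescence for binding of the Sf9 membrane reagent. Each polyreactivity label is drawn from the gate of origin.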

| Sequence | polyreactivity (PSR sort gate) |
| --- | --- |
| QVQLVESGGGLVQAGGSLRLSCAASGLTFPFYTMGWYRQAPGKERELVAAISRRGGSTYYADSVKGRFTISRDNAKNTVYLQLNSLKPEDTAVYYCAADKYSWYDYWGQGTQVTVSS | low polyreactivity |
| QVQLVESGGGLVQAGGSLRLSCAASGLTFPHNAMGWYRQAPGKERELVAAITSSGCSTYYADSVKGRFTISRDNAMNSVYLQMNSLKPEDTAVYYCAKRDGTDRLDDYWGQGTQVTVSS | high polyreactivity |
| QVQLVESGGGLVQAGGSLRLSCAASGLTFPHYAMGWYRQAPGKERELVAAISSGGSTHYADSVKGRFTISRDNAKNTVYLQMNSLKPEDTAVYYCAARRHGRRTVQGKFDFWGQGTQVTVSS | high polyreactivity |
| QVQLVESGGGLVQAGGSLRLSCAASGLTFPIYAMGWYRQAPGKEREFVAVITTSGGSTYYSDSVKGRFTISRDNAKNTVYLQMNSLKPEDTAVYYCNARRIRHYYWGQGTQVTVSS | high polyreactivity |
| QVQLVESGGGLVQAGGSLRLSCAASGLTFPLYAMGWYRPAPGKEREFVAAITVSGVSTSYADSVKGRFTISRDNAKNTVYLQMNSLKPEDTAVYYCAADYYIWTYWDVYYWGQGTQVTVSS | high polyreactivity |
| QVQLVESGGGLVQAGGSLRLSCAASGLTFPLYAMGWYRQAPGKEREFVAAITVSGVSTSYADSVKGRFTISRDNAKNTVYLQMNSLKPEDTAVYYCAADYYIWTYWDVYYWGQGTQVTVSS | high polyreactivity |
| QVQLVESGGGLVQAGGSLRLSCAASGLTFPQYAMGWYRQAPGKERELVAAISKTGGSTYYADSVKGRFTISRDNAKNTVYLQMNSLKPEDTAVYYCAAVESGDRGQRNNYWGQGTQVTVSS | high polyreactivity |
| QVQLVESGGGLVQAGGSLRLSCAASGLTFPTNAMGRYRQAHGKESQFVAAITSRGGTTYYADSVTGRFPISRDNAKNTVYLQMNSLKPEDTAVYYCAALSVTIDQSYRYGYWGQGTQVTVSS | low polyreactivity |
| QVQLVESGGGLVQAGGSLRLSCAASGLTFPYYDMGWYRQAPGKERELVATITISGRTNYADSVKGRFTISRDNAKNTVYLQMNSLKPEDTAVYYCNARYRGRVYDRFGYWGQGTQVTVSS | high polyreactivity |
| QVQLVESGGGLVQAGGSLRLSCAASGLTFQLYAMGWYRQAPGKERELVAAISGSGGRTYYADSVKGRFTISRDNGKNTVYLLMNRLKPEDTAVYYCAARPGSGRSYTSDYWGQGTQVTVSS | high polyreactivity |
| QVQLVESGGGLVQAGGSLRLSCAASGLTFQNNAMGWYRQAPGKERELVAAISDGGSTNYADSVKGRFTISRDNAKNTVYLQMNSLKPEDTAVYYCAAVYTSASYGSWGQGTQVTVSS | low polyreactivity |
| QVQLVESGGGLVQAGGSLRLSCAASGLTFQSYAMGWYRQAPGKERELVAAISRRSGSTYYADSVKGRFTISRDNAKNTVYLQMNSLKPEDTAVYYCTTRRGERGYWGQGTQVTVSS | high polyreactivity |
| QVQLVESGGGLVQAGGSLRLSCAASGLTFQYKTMGRYRQAPGKEREFVAAITISGGTTYYADSVKGRFTISRDNAKTTVYLQMNSLKPEDTAVHYCAADFNSTERGTNMDYWGQGTQVTVSS | low polyreactivity |
| QVQLVESGGGLVQAGGSLRLSCAASGLTFQYYAMGWYRQAPGKDRELVAAISTSGGSTYYADSVKGRFTISRDYAKNTVYLQMNSLKPEDTAVYYCAARRGSQYWGQGTQVTVSS | high polyreactivity |
| QVQLVESGGGLVQAGGSLRLSCAASGLTFRDNAMGWYRQAPGKERELVAAISTNGGSTYYADSVKGRFTISRDNAKNTVYLQMNSLKPEDTAVYYCAKSFLTQYPQVDSDYWGQGTQVTVSS | low polyreactivity |
| QVQLVESGGGLVQAGGSLRLSCAASGLTFRFYAMGWYRQAPGKERELVAVISGRGTSTYYADSVKGRFTISRDNAKNTVYLLMNSLKPEDTAVYYCAARYVAYAYVGNDYWGQGTQLTVSS | high polyreactivity |
| QVQLVESGGGLVQAGGSLRLSCAASGLTFRLNAMGWYRHAPGKERELVAAITRGGRTNYADSVKGRFTISRDNAKNTVYLQMNSLKPEDTAVYYCAARYVERHTDYYYWGQGTQVTVSS | low polyreactivity |
| QVQLVESGGGLVQAGGSLRLSCAASGLTFRLNAMGWYRQAPGKERELVAAITAIGDRTYYADSVKGRFTISRDNAKNTVYLQMNSLKPEDTAVYYCNVTPRRAQVRIGNYWGQGTQVTVSS | high polyreactivity |
| QVQLVESGGGLVQAGGSLRLSCAASGLTFRRYAMGWYRQAPGKVRELVAGISRGGSTYYADSVKGRFTISRDNAKNTVYLQMNSLKPEDTAVYYCAAYNRGTYPVQPVPYDMDYWGQGTQVTVSS | low polyreactivity |
| QVQLVESGGGLVQAGGSLRLSCAASGLTFRVYAMGWYRQAPGKERELVAAITGGGGSTYADSVKGRFTISRDNAKNTVYLQMNSLKPEDTAVYYCAAASPWDRDDYWGQGTQVTVSS | low polyreactivity |
| QVQLVESGGGLVQAGGSLRLSCAASGLTFRWYAMGWYRQAPGKERELVAAISSSGRTNYADSVKGRFTISRDNAKNTVYLQMNSLKPEDTAVYYCAADSSWRTSDYWGQGTQVTVSS | low polyreactivity |
| QVQLVESGGGLVQAGGSLRLSCAASGLTFRWYAMGWYRRAPGKERELVAAISSGGSTNYADSVKGRFTISRDNAKNTVYLQMNSLKPEDTAVYYCNAKGRPWFKYDYWGQGTQVTVSS | high polyreactivity |

| Sequence | polyreactivity (PSR sort gate) |
| --- | --- |
| QVQLVESGGGLVQAGGSLRLSCAASGLTFRYYAMGWYRQAPGKERELVAAINYSGGGTYYADSVKGRFTISRDNAKNTVYLQMNSLKPEDTAVYYCNAAYRGYYYWGQGTQVTVSS | high polyreactivity |
| QVQLVESGGGLVQAGGSLRLSCAASGLTFRYYAMGWYRQAPGKERELVAAITGSGGSTYYADSVKGRFTISRDNAKNTVYLQMNSLKPEDTAVYYCADVIAEYDYFSYYYEYDYWGQGTQVTVSS | high polyreactivity |
| QVQLVESGGGLVQAGGSLRLSCAASGLTFRYYAMGWYRQAPGKERELVAAITRRGSTYYADSVKGRFTISRDNAKNTVYLQMISLKPEDTAVYYCATVTGFHSSPLRDLDYWGQGTQVTVSS | high polyreactivity |
| QVQLVESGGGLVQAGGSLRLSCAASGLTFRYYAMGWYRQAPGKERELVAAITRRGSTYYADSVKGRFTISRDNAKNTVYLQMNCLKPEDTAVYYCATVTGFHSSPLRDLDYWGQGTQVTVSS | high polyreactivity |
| QVQLVESGGGLVQAGGSLRLSCAASGLTFRYYSMGWYSQAPGKERELVASISWSGASTYYADSVKGRFTISRDNAKNTVYLQMNSLKPEDTGVYYCNAGYYGSYDYWGQGTQVTVSS | high polyreactivity |
| QVQLVESGGGLVQAGGSLRLSCAASGLTFRYYTMGWYRQAPGKERELVAAISRTVGSTYYADSVKGRFTISRDNAKNTVYLQMNSLKPEDTAVYYCAAKYEQYSPAVIYYYWGQGTQVTVSS | high polyreactivity |
| QVQLVESGGGLVQAGGSLRLSCAASGLTFSAYAMGWYRQAPGKERELVAAITSSGGSTYADSVKGRFTISRDNAKNTVYLQMNSLKPEDTAVYYCNADLGDYGWYSSYDYWGQGTQVTVSS | low polyreactivity |
| QVQLVESGGGLVQAGGSLRLSCAASGLTFSAYAMGWYRQAPGKERELVAAITSSGGSTYADSVKGRFTLSRDNAKNTVYLQMNSRKPEDTAVYYCNADLGDYGWYSSYDYWGQGNQVTVSS | low polyreactivity |
| QVQLVESGGGLVQAGGSLRLSCAASGLTFSGNVMGCYIQAPGKERELVAAIDRSGGSTYYADSVKGRFTISRDNAKNTVYLQMNSLKPEDTAVYYCAVSSYPNHSRSWDDYWGQGTQVTVSS | low polyreactivity |
| QVQLVESGGGLVQAGGSLRLSCAASGLTFSHYAMGWYRQAPGKERELVAGISSRGGNTYYADSVKGRFTISRDNAKNTVYLQMNSLKPEDTAVYYCATPRSRTDGYDYWGQGTQVTVSS | high polyreactivity |
| QVQLVESGGGLVQAGGSLRLSCAASGLTFSIYAMGWYRQAPGKERELVAAISWSGGSTYYADSVKGRFTISRDNAKNTVYLQMNSLKPEDTAVYYCAARVYRPWWRYDYWGQGTQVTVSS | high polyreactivity |
| QVQLVESGGGLVQAGGSLRLSCAASGLTFSIYAMGWYRQAPGKERELVAGISQSGGSTYADSVKGRFTISRDNAKNTVYLQMNSLKPADTAVYYCAKEFEWVGSPSTVDGLDYWGHGTQVTVSS | low polyreactivity |
| QVQLVESGGGLVQAGGSLRLSCAASGLTFSRNAMGWYRQAPGKERELFATINSGGRTNYADSVKGRFTISRDNAKNTVYLQMNSQKPEDTAVYYCAVRTYSNYRAIVPYCRYDYWGQGTQVTVSS | high polyreactivity |
| QVQLVESGGGLVQAGGSLRLSCAASGLTFSRNTMGWYRQAPGKERELVDTIDRGGRTNYADSVKGRFTISRDNAKNTVYLQMNSLKPEDTAVYYCATDASFYDPDLYPYGYDYWGQGTQVTVSS | high polyreactivity |
| QVQLVESGGGLVQAGGSLRLSCAASGLTFSYYAMGWYRQAPGKERELVAAITSGGNTNYADSVKGRFTISRDNAKNTVYLQMNSLKPEDTAVYYCAARFYFTRSFPRKFYYWGQGTQVTVSS | high polyreactivity |
| QVQLVESGGGLVQAGGSLRLSCAASGLTFSYYVMGWYRQAPGKVRELVAAISSGGSTNYADSVKGRFTMSRDNAKNTVYLQLNSLKPEDTAVYYCAARNARADKQCTRWRNYWGQGTQVTVSS | low polyreactivity |
| QVQLVESGGGLVQAGGSLRLSCAASGLTFTGYAMGWYRQATGKERELVASISRSGASTFYADSVKGRFTISRDNAKNTVYLQMNSLKPEDTAVYYCAAVPGWLTSRYYYWGQGTQVTVSS | high polyreactivity |
| QVQLVESGGGLVQAGGSLRLSCAASGLTFTLYTMGWYRQAPGKEREFVAVISGTGGRTYYADSVKGRFTISRDNAKNTVYLQMNSLKPEDTAVYYCATCYSFRYWGQGTQVTVSS | high polyreactivity |
| QVQLVESGGGLVQAGGSLRLSCAASGLTFTSYVMGWYRQAPGKERELVAAIRWSGGRTYYADSVKGRFTISRDNAKNTVYLQMNSLKPEDTAVYYCAAQWYSGSHGYYYWGQGTQVTVSS | high polyreactivity |
| QVQLVESGGGLVQAGGSLRLSCAASGLTFTVYGMGWSRQAPGKEREFVATISRRGGRTYYADSVKGRFTISRDNAKNTVYVLLNSLKPEDTAVYYCNADIGTYVRSGGGDYWGQGTQVTVSS | low polyreactivity |
| QVQLVESGGGLVQAGGSLRLSCAASGLTFTYNAMGGYRQAPGKERELVAAITSGGNTNYADSVKGRFTISRDNAKNTVYLQMKSLKPEDTAVYYCATDRKNGISGRYGYWGQGTQVTVSS | low polyreactivity |
